Test results published in patent publication US20240376151A1, “STAPLED PEPTIDES AND METHODS THEREOF” (FOG PHARMACEUTICALS, INC., priority 2022, published 2024).
Ends that are not written are not given here.

What was measured:
CUL5 = target: T1, CUL5 (Homo sapiens, UniProt Q93034, L345D/V341R); experiment: Naive Library Presenter Screening (phage, NGS), CUL5; format: binding; conditions: for interaction data at Target Concentration 10: CUL5 target concentration 10 nM; for interaction data at Target Concentration 30: CUL5 target concentration 30 nM; for interaction data at Target Concentration 100: CUL5 target concentration 100 nM; for interaction data at Target Concentration 300: CUL5 target concentration 300 nM; for interaction data at Target Concentration 1000: CUL5 target concentration 1000 nM
T1 construct: GST-TEV (N, cleaved yes); made in house; host or cells: E. coli BL21 CodonPlus
T1 sequence (Q93034 1-386 V341R/L345D): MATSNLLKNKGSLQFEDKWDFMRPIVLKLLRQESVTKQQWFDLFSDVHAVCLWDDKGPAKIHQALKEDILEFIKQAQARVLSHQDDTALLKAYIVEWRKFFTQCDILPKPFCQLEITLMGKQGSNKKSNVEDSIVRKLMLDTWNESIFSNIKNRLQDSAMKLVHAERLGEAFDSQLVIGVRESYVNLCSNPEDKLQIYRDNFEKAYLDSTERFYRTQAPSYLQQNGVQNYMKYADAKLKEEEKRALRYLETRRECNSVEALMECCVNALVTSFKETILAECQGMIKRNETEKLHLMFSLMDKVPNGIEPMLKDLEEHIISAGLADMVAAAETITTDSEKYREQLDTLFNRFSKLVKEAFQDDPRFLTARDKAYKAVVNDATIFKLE

CUL4B = target: T2, CUL4B (Homo sapiens, UniProt Q13620, L520D/V516R); experiment: Naive Library Presenter Screening (phage, NGS), CUL4B; format: binding; conditions: for interaction data at Target Concentration 10: CUL4B target concentration 10 nM; for interaction data at Target Concentration 30: CUL4B target concentration 30 nM; for interaction data at Target Concentration 100: CUL4B target concentration 100 nM; for interaction data at Target Concentration 300: CUL4B target concentration 300 nM; for interaction data at Target Concentration 1000: CUL4B target concentration 1000 nM
T2 construct: GST-TEV (N, cleaved yes); made in house; host or cells: E. coli BL21 CodonPlus
T2 sequence (Q13620 206-557 V516R/L520D): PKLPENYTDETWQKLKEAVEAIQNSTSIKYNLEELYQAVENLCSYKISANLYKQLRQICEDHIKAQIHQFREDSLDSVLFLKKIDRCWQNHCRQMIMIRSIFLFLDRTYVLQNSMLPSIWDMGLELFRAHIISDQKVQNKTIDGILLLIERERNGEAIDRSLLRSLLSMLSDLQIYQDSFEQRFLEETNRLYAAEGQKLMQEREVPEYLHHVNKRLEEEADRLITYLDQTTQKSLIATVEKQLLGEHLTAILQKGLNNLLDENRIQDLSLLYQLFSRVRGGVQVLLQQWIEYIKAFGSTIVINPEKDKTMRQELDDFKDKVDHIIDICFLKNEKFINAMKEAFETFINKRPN

Sequence	interaction data at Target Concentration 10 (CUL5)	interaction data at Target Concentration 30 (CUL5)	interaction data at Target Concentration 100 (CUL5)	interaction data at Target Concentration 300 (CUL5)	interaction data at Target Concentration 1000 (CUL5; first column)	interaction data at Target Concentration 1000 (CUL5; second column)	interaction data at Target Concentration 10 (CUL4B)	interaction data at Target Concentration 30 (CUL4B)	interaction data at Target Concentration 100 (CUL4B)	interaction data at Target Concentration 300 (CUL4B)	interaction data at Target Concentration 1000 (CUL4B; first column)	interaction data at Target Concentration 1000 (CUL4B; second column)
DPAWYECASAAWVCYSM	0	13	94	60	171	0	–	–	–	–	–	–
DPAWQWCAEAAWQCITH (not fully specified (C-terminus, bridges); cysteine pairing not given here)	14	59	284	284	265	0	–	–	–	–	–	–
DPADRQCLFAAWYCEHT	–	–	–	–	–	–	0	10	0	6	11	2
DPAWMTCATAAWECYLA	6	6	62	48	55	0	–	–	–	–	–	–
DPATRHCIFAAWACDRF	–	–	–	–	–	–	0	0	47	20	12	0
DPADRLCELAAWVCQSF	–	–	–	–	–	–	0	0	0	48	9	0
DPAMNHCVLAAWVCDTF	–	–	–	–	–	–	0	0	6	37	9	0
DPATFACANAAWECYAR	0	6	25	11	35	0	–	–	–	–	–	–
DPAWRECAHAAWQCYIQ	0	50	47	21	93	0	–	–	–	–	–	–
DPASRLCELAAWVCDSF	–	–	–	–	–	–	4	15	139	319	251	0
DPAWAICAEAAWDCFMI	0	14	13	58	11	0	–	–	–	–	–	–
DPAWMRCATAAWECVMT	16	22	151	104	–	0	–	–	–	–	–	–
DPASRMCEMAAWFCENY	–	–	–	–	–	–	0	3	11	13	78	0
DPAWRACAQAAWDCIIA	1	167	267	385	368	0	–	–	–	–	–	–
